Laboratory results reported in publication doi:10.1101/2020.11.26.395038 (bioRxiv, 2020).

biological target: mitogen-activated protein kinase p38α (residues 2-349) (human, UniProt Q16539 2-349); test: ITC
Sequence (Q16539 2-349): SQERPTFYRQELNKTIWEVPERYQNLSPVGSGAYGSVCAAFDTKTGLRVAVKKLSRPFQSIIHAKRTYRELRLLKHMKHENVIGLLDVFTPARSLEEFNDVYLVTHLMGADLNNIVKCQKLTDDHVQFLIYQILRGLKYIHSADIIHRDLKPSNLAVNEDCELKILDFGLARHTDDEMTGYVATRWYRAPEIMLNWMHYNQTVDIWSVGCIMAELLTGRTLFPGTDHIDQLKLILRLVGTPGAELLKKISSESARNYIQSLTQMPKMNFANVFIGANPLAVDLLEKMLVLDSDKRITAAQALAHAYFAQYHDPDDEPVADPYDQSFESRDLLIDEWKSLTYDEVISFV

Kd [µM] | Binder
7 ± 2 | SQSKGKKRNPGLKIPKEAF [MKK6KIM peptide]
2 ± 0.1 | full-length MKK6 (residues 1-334) (enzyme, UniProt P52564 1-334, looked up) MSQSKGKKRNPGLKIPKEAFEQPQTSSTPPRDLDSKACISIGNQNFEVKADDLEPIMELGRGAYGVVEKMRHVPSGQIMAVKRIRATVNSQEQKRLLMDLDISMRTVDCPFTVTFYGALFREGDVWICMELMDTSLDKFYKQVIDKGQTIPEDILGKIAVSIVKALEHLHSKLSVIHRDVKPSNVLINALGQVKMCDFGISGYLVDSVAKTIDAGCKPYMAPERINPELNQKGYSVKSDIWSLGITMIELAILRFPYDSWGTPFQQLKQVVEEPSPQLPADKFSAEFVDFTSQCLKKNSKERPTYPELMQHPFFTLHESKGTDVASFVKLILGD
3.5 ± 1.4 | constitutively active MKK6 variant MKK6_(1-334)^S207ET211E (enzyme, UniProt P52564 1-334, looked up) MSQSKGKKRNPGLKIPKEAFEQPQTSSTPPRDLDSKACISIGNQNFEVKADDLEPIMELGRGAYGVVEKMRHVPSGQIMAVKRIRATVNSQEQKRLLMDLDISMRTVDCPFTVTFYGALFREGDVWICMELMDTSLDKFYKQVIDKGQTIPEDILGKIAVSIVKALEHLHSKLSVIHRDVKPSNVLINALGQVKMCDFGISGYLVDEVAKEIDAGCKPYMAPERINPELNQKGYSVKSDIWSLGITMIELAILRFPYDSWGTPFQQLKQVVEEPSPQLPADKFSAEFVDFTSQCLKKNSKERPTYPELMQHPFFTLHESKGTDVASFVKLILGD
